As usually defined, the IC50 is the concentration that inhibits the measured activity by half. A higher IC50 goes with lower potency.

One test has as its target active TGFβ3 (UniProt P10600). Put plainly: blocking of active TGFβ3 (1 ng/mL) in solution, 30 min in PBS; free TGFβ3 by ELISA. For orientation: ELISA stands for enzyme-linked immunosorbent assay.
Test [1] deals with T1, active TGFβ1 (human, UniProt P01137 279-390).
T1 construct: mature; also called TGFb1; human active TGFβ1
In words: blocking of active TGFβ1 (1 ng/mL) in solution, 30 min in PBS; free TGFβ1 by ELISA.

Test [2] deals with T1, active TGFβ1. In words: cell-based or functional assay.

T1 sequence (P01137 279-390 limits assumed): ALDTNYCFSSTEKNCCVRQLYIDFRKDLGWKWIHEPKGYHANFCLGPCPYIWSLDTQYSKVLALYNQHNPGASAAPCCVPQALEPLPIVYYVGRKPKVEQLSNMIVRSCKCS
active TGFβ3, sequence (P10600 301-412): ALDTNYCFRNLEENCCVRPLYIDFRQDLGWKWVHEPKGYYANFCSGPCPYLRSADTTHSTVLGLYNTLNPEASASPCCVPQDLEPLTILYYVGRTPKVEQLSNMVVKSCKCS

Turning to “FIST (monovalent FIST; fusion protein of an IL-2 polypeptide and a single sTBRII receptor polypeptide)”, the IC50 worked out at 3.6 nM with active TGFβ3 and 1.29 nM in the test with active TGFβ1 [1]. Also, the IC50 values for the inhibition of TGFb1-dependent suppression of CTLL-2 cell proliferation in the test with active TGFβ1 [2] is 0.12.

B1: sTBRII isoform 2 (long) (receptor, UniProt P37173-2 23-191, looked up)
chain: TIPPHVQKSDVEMEAQKDEIICPSCNRTAHPLRHINNDMIVTDNNGAVKFPQLCKFCDVRFSTCDNQKSCMSNCSITSICEKPQEVCVAVWRKNDENITLETVCHDPKLPYHDFILEDAASPKCIMKEKKKPGETFFMCSCSSDECNDNIIFSEEYNTSNPDLLLVIFQ
notes: also called TbRII (isoform II); TβRII isoform 2
B1 came in with an IC50 in the test with active TGFβ1 [1] of 0.02 nM.

(Values after patent US20220127332A1 (CURA THERAPEUTICS, published 2022).)
